In test [1] the target is T1, recombinant human IL-17F (produced in HEK cells, Proteintech HZ-1116) (human, UniProt Q96PD4 31-163).
T1 sequence (looked up): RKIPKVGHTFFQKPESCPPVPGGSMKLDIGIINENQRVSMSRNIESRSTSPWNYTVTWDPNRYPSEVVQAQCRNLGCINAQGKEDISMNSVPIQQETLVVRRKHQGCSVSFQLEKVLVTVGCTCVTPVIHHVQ
Put plainly: cell-based or functional assay.

For test [2], the target named is T2, human IL-17A with C-terminal Avi-tag, biotinylated, immobilized on BLI sensors (human, UniProt Q16552 24-155, biotin on the C-terminal Avi-tag (BirA)).
T2 construct: also called biotinylated IL-17A; not shown: C-terminal Avi-tag
In words: BLI, biotinylated IL-17A immobilized on streptavidin sensors, monovalent VHH as analyte (25, 50, 100 nM), mass transport fit. On the technique in general: BLI is a label-free optical method that tracks binding on a fibre tip over time.

The target of test [3] is T2, human IL-17A with C-terminal Avi-tag, …. Put plainly: BLI, biotinylated IL-17A immobilized, monovalent VHH as analyte.
Test [4] has as its target recombinant human IL-17A/F (produced in CHO cells, R&D Systems 5837-IL) (human, UniProt Q16552 24-155; Q96PD4 31-163, limits assumed). In words: cell-based or functional assay.
Test [5] concerns the target T1, recombinant human IL-17F (produced in …). In words: cell-based or functional assay. This is another data set of the same source.
In test [6] the target is T3, recombinant human IL-17A (produced in HEK cells, Proteintech HZ-1113) (human, UniProt Q16552 24-155). Put plainly: cell-based or functional assay.
In test [7] the target is T3, recombinant human IL-17A (produced in …). Put plainly: cell-based or functional assay. The source holds these as a separate data set.
The target in test [8] is T4, human IL-17F with C-terminal Avi-tag, biotinylated, immobilized on BLI sensors (human, UniProt Q96PD4 31-163, biotin on the C-terminal Avi-tag (BirA)).
T4 construct: also called biotinylated IL-17F; not shown: C-terminal Avi-tag
T4 sequence: T1 sequence (looked up)
Put plainly: BLI, biotinylated IL-17F immobilized, monovalent VHH as analyte.

The target of test [9] is T4, human IL-17F with C-terminal Avi-tag, …. In words: BLI, biotinylated IL-17F immobilized on streptavidin sensors, monovalent VHH as analyte (20, 100 nM), 2:1 heterogenous fit, low affinity component.
Test [10] deals with T2, human IL-17A with C-terminal Avi-tag, …. Put plainly: BLI, biotinylated IL-17A immobilized on streptavidin sensors, monovalent VHH as analyte (25, 50, 100 nM), 2:1 heterogenous fit, high affinity component.
In test [11] the target is T1, recombinant human IL-17F (produced in …). Put plainly: cell-based or functional assay. The source holds these as a separate data set.
Test [12] has as its target T4, human IL-17F with C-terminal Avi-tag, …. Put plainly: BLI, biotinylated IL-17F immobilized, monovalent VHH as analyte; 2:1 heterogenous model, high affinity component.
The target in test [13] is T2, human IL-17A with C-terminal Avi-tag, …. In words: BLI, biotinylated IL-17A immobilized, monovalent VHH as analyte; 2:1 heterogenous model, high affinity component.
For test [14] the target is unchanged. Put plainly: BLI, biotinylated IL-17A immobilized on streptavidin sensors, monovalent VHH as analyte (20, 100 nM), 2:1 heterogenous fit, low affinity component.
For test [15], the target named is T1, recombinant human IL-17F (produced in …). In words: cell-based or functional assay. This is another data set of the same source.

Changes are numbered by the printed parent chain. Where two headings read alike, the source gives them in different places.

A word on the Kd: it is the constant that tells how readily two partners part at equilibrium. Read a high Kd as a looser complex.

recombinant human IL-17A/F (produced in CHO cells, R&D Systems 5837-IL), sequence (Q16552 24-155 limits assumed, chain 1 of 2, one chain of several): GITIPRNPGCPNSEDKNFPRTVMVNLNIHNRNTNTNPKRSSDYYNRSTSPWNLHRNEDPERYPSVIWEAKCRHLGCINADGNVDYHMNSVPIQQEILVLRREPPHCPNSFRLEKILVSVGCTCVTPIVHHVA

B1: Bm18F11 (VHH)
VHH: QVQLVESGGDLVQAGGSLRLSCAASGLTGSSYAMGWFRQAPGKEREFVAAISWISGDTKYTDSVKGRFTMSRDNAKKQVYLEMNSLKPEDTAVYYCNDMPYGLDTRMDEYVYWGQGTQVTVSS
notes: Class A, first generation
As for B1, in test [1], the “IC50 (read off the curve), SEAP reporter, HEK-Blue IL-17 cells, 0.85 nM IL-17F” value (“IC50 (read off the curve) … 0.85 nM IL-17F” below) was about 5 nM. Besides, the Kd in [2] worked out at 1 nM.

B2: Bm44C09 (VHH)
VHH: B1 VHH with D10G, T28A, G29V, D57G, T61A, G66D, E109D, V111K, T117I
notes: Class A, second generation
Take B2: the Kd in [3] is 2 nM; in test [8], 0.1 nM. For the same molecule, the “Neutralization potency, ranking from 1 = the best to 4 (HEK-Blue IL-17 reporter cells)” value (from here on “Neutralization potency, ranking”) in test [4] was 1 rank; in test [5] it was 1 rank; in test [6], 4 rank. Further, the “IC50 (read off the curve), SEAP reporter, HEK-Blue IL-17 cells, 0.17 nM IL-17A” value in test [7] is about 2 nM.

B3: Re42F08 (VHH)
VHH: QVQLVESGGGLVKAGGSLRLSCVVSGHTSEISAMGWYRQAPGKQRELVALITSRSGDTHYSDSVKGRFSISRDNAKNTMYLQMNSLNPDDTAVYYCVHNEPGHLYMAQGTQVTVSS
notes: Class B, first generation
Turning to B3, the KD2 in [9] and in test [14] was 60 nM throughout. Further, the Kd in test [10] came to 1 nM; in test [12], 6 nM; in test [13], 1 nM. For the same molecule, the “IC50 (read off the curve) … 0.85 nM IL-17F” value in [11] is about 5 nM. Further, the “Neutralization potency, ranking” value in test [4] came out at 3 rank; in [5] it was 4 rank; in test [6], 2 rank.

B4: VHH664 (VHH)
VHH: EVQLVESGGGLVQAGGSLRLSCAASGRTYDAMGWLRQAPGKEREFVAAISGSGDDTYYADSVKGRFTISKDNAGITMYLQMNSLKPEDTAVYYCATRRGLYYVWDSNDYENWGQGTQVTVSS
notes: Control VHH of Ablynx, disclosed in WO2012156219
For the molecule B4, the “IC50 (read off the curve) … 0.85 nM IL-17F” value in test [15] is about 0.06 µg/mL. Also, the Kd is 0.15 nM in [3] and 12 nM in test [8]. For the same molecule, the “Neutralization potency, ranking” value is 2 rank in test [4], 4 rank in test [5] and 2 rank in [6].

(Values after patent US20260209334A1 (MAX PLANCK GESELLSCHAFT ZUR F RDERUNG DER WISSENSCHAFTEN E V, published 2026).)
